Measured values taken from patent publication US6140466.
pKd: −log10 of the molar value.

What was measured:
[1] = tested on: Zif268 variant G6 finger 2 helix residues changed (FIG. 9) (synthetic (Zif268 variant)); assay: SPR
[2] = target: Zif268 variant C9 finger 1 helix residues changed (FIG. 9) (synthetic (Zif268 variant)) (UniProt Q6NTY6); assay: SPR; conditions: equivalent to Zif268
[3] = target: Zif268 variant A14 finger 3 helix residues changed (FIG. 9) (synthetic (Zif268 variant)) (UniProt Q6NTY6); assay: SPR
[4] = tested on: Zif268 variant G4 finger 2 helix residues changed (FIG. 9) (synthetic (Zif268 variant)); assay: SPR
[5] = tested on: MBP-C7-C7 (six-finger) (synthetic (Zif268 variant, mouse)); assay: EMSA
[6] = tested on: MBP-Sp1C-C7 (six-finger) (synthetic (Sp1C/Zif268 variant)); assay: EMSA
[7] = target: MBP-Sp1C (synthetic (human Sp1 variant)) (UniProt P08047); assay: EMSA; conditions: 0.1 mM ZnCl2, RT
[8] = tested on: C7-C7-VP16 (synthetic (Zif268 variant)); assay: cell_activity; conditions: HeLa luciferase reporter
[9] = target: Zif268 displayed on phage (Mus musculus) (UniProt P08046); assay: SELEX; conditions: phage panning, same level as BSA
[10] = 0.1 mM ZnCl2, 100 mM KCl, poly(dI-dC), RT
[11] = 9 bp half-site, 0.1 mM ZnCl2, RT

Chain of MBP-Sp1C (synthetic (human Sp1 variant)) (P08047 626-708, change not shown): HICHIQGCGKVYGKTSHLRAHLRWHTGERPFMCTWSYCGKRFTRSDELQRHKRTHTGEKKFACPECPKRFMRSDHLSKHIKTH
Chain of Zif268 variant C9 finger 1 helix residues changed (FIG. 9) (synthetic (Zif268 variant)) (Q6NTY6 whole entry, change not shown): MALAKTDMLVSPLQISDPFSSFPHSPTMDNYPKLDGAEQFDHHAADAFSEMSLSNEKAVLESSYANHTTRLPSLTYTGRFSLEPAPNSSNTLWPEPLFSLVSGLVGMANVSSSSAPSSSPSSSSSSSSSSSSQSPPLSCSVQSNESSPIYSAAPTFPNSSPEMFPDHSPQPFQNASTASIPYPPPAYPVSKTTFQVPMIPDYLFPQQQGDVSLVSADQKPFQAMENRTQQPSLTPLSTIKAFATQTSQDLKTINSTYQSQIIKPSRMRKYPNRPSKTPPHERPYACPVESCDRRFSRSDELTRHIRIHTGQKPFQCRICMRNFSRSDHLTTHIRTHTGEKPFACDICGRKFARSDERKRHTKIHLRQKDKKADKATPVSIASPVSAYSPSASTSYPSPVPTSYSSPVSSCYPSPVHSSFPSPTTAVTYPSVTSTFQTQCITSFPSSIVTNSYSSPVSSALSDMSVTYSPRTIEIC
Chain of Zif268 variant A14 finger 3 helix residues changed (FIG. 9) (synthetic (Zif268 variant)) (Q6NTY6 whole entry, change not shown): as above

CCTGCGTGGGCGCCCTTTTGGGCGCCCACGCAGG [Z268N consensus hairpin]
binding signal (fold weaker than TTG site) [1]: 4
binding signal (fold of Zif268 affinity) [2]: 1
binding signal (fold lower affinity than Zif268) [3]: 2
binding signal (fold weaker than TTG site) [4]: 4

CCTGCGTTGGCGCCCTTTTGGGCGCCAACGCAGG [TTG finger 2 hairpin (HIV-1 subsite)]
binding signal (fold of Zif268-consensus affinity) ([1]; specificity by on-rate): 1
binding signal (fold of Zif268-consensus affinity) ([4]; equivalent to Zif268 on its consensus): 1

GATGTATGTAGCGGCGGCGGCGGCGGCGTAAGTAATGC (double strand) [(GCG)6 site probe]
pKd ([5]; 0.1 mM ZnCl2, RT): 7.76

GATGTATGTAGCGTGGGCGGCGTGGGCGTAAGTAATGC (double strand) [C7-C7 site probe]
pKd [5, 10]: 9.34
pKd ([6]; 0.1 mM ZnCl2, RT): 8.74

GATGTATGTAGCGTGGGCGGGGGCGGGGTAAGTAATGC (double strand) [Sp1C-C7 site probe]
pKd [5, 10]: 8.62
pKd [6, 10]: 9.26

GATGTATGTAGCGTGGGCGTAAGTAATGC (double strand) [C7 site probe]
pKd [5, 11]: 8.21
pKd [6, 11]: 8.31

GATGTATGTAGGGGCGGGGTAAGTAATGC (double strand) [Sp1C site probe]
pKd [7]: 7.39
pKd [6, 11]: 7.56

GCGTGGGCG (double strand) [6x C7 site SV40 promoter reporter]
activity (fold activation) [8]: 3

GCGTGGGCGGCGTGGGCG (double strand) [6x C7-C7 site SV40 promoter reporter]
activity (fold activation) [8]: > 300

GCGTGGGCGGGGGCGGGG (double strand) [6x Sp1C-C7 site SV40 promoter reporter]
activity (fold activation) [8]: 3

TFIIIA fingers 1-3 site (panning)
binding signal (fold less than consensus) [9]: 9
